The target of this assay is Notch1(EGF1-36) (amino acids 20-1426) (human, UniProt P46531 20-1426, biotin, chemically at the N-terminus (EZ-Link Sulfo-NHS-Biotin)). Description: SPR. In general terms: SPR reads the build-up and loss of mass on a sensor chip optically.

For orientation: Kd means the free concentration of one partner at which half of the binding sites on the other are occupied at equilibrium, for simple one-to-one binding. A higher Kd goes with lower affinity.

Sequence of Notch1(EGF1-36) (amino acids 20-1426) (P46531 20-1426): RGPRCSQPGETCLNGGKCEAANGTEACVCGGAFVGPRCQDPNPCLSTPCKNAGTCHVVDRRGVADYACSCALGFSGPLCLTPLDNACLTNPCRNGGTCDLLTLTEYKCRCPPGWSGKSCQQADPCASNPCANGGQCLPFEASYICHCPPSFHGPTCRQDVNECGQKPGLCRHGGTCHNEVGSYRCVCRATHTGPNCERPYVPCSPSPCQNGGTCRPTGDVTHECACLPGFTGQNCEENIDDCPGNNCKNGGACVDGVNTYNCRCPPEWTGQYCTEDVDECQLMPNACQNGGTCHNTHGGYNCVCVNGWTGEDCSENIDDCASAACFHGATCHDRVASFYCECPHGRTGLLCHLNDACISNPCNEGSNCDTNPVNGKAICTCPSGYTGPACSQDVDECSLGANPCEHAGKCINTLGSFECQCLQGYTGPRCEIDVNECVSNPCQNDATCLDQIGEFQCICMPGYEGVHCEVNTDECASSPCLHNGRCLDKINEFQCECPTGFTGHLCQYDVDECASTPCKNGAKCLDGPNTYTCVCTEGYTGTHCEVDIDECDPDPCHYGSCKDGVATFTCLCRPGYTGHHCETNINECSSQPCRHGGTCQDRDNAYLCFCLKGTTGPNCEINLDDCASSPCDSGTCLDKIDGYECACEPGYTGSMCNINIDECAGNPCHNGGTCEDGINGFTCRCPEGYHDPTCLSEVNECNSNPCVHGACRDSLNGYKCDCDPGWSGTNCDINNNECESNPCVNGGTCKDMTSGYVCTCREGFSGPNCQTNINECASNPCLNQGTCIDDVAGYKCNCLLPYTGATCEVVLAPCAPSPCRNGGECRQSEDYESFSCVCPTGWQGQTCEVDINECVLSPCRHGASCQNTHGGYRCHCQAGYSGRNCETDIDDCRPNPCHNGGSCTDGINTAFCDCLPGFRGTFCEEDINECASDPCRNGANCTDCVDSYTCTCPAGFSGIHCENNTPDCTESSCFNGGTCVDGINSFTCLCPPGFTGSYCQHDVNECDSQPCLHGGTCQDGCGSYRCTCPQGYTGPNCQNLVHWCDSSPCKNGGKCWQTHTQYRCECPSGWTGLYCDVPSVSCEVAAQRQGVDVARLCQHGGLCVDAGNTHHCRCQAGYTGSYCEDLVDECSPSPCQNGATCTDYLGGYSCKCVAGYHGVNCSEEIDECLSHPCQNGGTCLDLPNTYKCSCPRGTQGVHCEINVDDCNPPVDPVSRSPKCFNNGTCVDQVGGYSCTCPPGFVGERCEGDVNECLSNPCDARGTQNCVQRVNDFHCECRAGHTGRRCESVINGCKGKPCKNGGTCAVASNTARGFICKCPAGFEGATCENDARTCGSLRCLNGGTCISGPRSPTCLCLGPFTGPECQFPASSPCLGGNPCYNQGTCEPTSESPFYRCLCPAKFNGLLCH

B1: Human DLL4 (N-EGF5, amino acids 27-400) (domain or fragment)
chain: SGVFQLQLQEFINERGVLASGRPCEPGCRTFFRVCLKHFQAVVSPGPCTFGTVSTPVLGTNSFAVRDDSSGGGRNPLQLPFNFTWPGTFSLIIEAWHAPGDDLRPEALPPDALISKIAIQGSLAVGQNWLLDEQTSTLTRLRYSYRVICSDNYYGDNCSRLCKKRNDHFGHYVCQPDGNLSCLPGWTGEYCQQPICLSGCHEQNGYCSKPAECLCRPGWQGRLCNECIPHNGCRHGTCSTPWQCTCDEGWGGLFCDQDLNYCTHHSPCKNGATCSNSGQRSYTCTCRPGYTGVDCELELSECDSNPCRNGGSCKDQEDGYHCLCPPGYYGLHCEHSTLSCADSPCFNGGSCRERNQGANYACECPPNFTGSNCE
For the molecule B1, the affinity, expressed as Kd, was 7.7 µM.

The values are drawn from PMC12216052 (2025).
